Results as given in US20200216515A1 (CELLECTIS, published 2020).

T1: CLL-1 (UniProt Q5QGZ9 65-265, limits assumed)
T1 sequence (looked up): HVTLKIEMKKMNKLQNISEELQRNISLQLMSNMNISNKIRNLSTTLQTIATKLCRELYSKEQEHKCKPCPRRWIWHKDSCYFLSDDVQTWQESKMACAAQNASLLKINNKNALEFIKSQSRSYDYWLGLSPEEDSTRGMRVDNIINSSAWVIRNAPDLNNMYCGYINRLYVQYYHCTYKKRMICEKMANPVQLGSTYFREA

B1: M26 (antibody, V domains shown)
VH: EVQLQQSGPELVKPGASVKMSCKASGYTFTSYFIHWVKQKPGQGLEWIGFINPYNDGSKYNEKFKGKATLTSDKSSSTAYMELSSLTSEDSAVYYCTRDDGYYGYAMDYWGQGTLVTVSS
VL: DIQMTQSPSSLSASLGERVSLTCRATQELSGYLSWLQQKPDGTIKRLIYAASTLDSGVPKRFSGNRSGSDYSLTISSLESEDFADYYCLQYAIYPYTFGGGTKLEIK
B2: G12 (antibody, V domains shown)
VH: QVQLQQPGAELVKPGASMKMSCKASGYTFPSSNIHWLKQTPGQGLEWIGVIYPGNGDTSYNQKFKDKATLTTDKSSSTAYMQLSSLTSEDSAIYFCARVYNWHFDVWGAGTTVTVSS
VL: NIVLTQSPASLAVSLGQRATISCRASESVDGYGDIFMLWYQQKPGQPPKLLIYFASNLESGVPARFSGSGSRTDFTLTIDPVEADDAATYYCQQNNEDPYTFGGGTKLEIK
B3: M29 (antibody, V domains shown)
VH: EVQLQQSGPELVKPGASVKMSCKASGYIFTSYVMYWVKQKPGQGLEWIGYINPYNDGTKYNEKFKGKATLTSDKSSSTAYMELSSLTSEDSAVYYCARYYDYDYYFDYWGQGTTLTVSS
VL: DIQMTQSPSSLSASLGGKVTITCKASQDINKYIAWYQHKPGKGPRLLIHYTSTLQPGIPSRFSGSGSGRDYSFSISNLEPEDIATYYCLQYDYLWTFGGGTKLEIK
B4: M22 (antibody, V domains shown)
VH: QVQLQQPGAELVKPGASVKLSCKASGYTFTRYWMHWVKQRPGQGLEWIGNIDPSDTETHYNQQFKDKATLTVDKSSSTAYMQLSSLTSEDSAVYYCAIYYGNPSYYAMDYWGQGTSVTVSS
VL: DIVMTQSPSSLTVTAGEKVTMSCKSSQNLLNSGNQKKYLNWYQQKPGQPPKLLIYWASTRESGVPDRFTGSGSGTDFTLTISSVQAEDLAVYFCQNDYSYPFTFGAGTKLELK

What follows are binders tested against T1, CLL-1 (assay: method not stated (Table 2, affinity of antibodies for CLL-1)).
With B1 the Kd was 0.214 nM. B2 showed a Kd of 0.07 nM. Work on B3 yielded a Kd of 1.48 nM. With B4 the Kd was 0.388 nM.
